For assay [1], the target named is T1, human BTLA on cells (stably transfected 293c18 cells; human peripheral blood T and B cells) (human, UniProt Q7Z6A9 31-289).
T1 construct: whole, on cells; the cells are named under assay; also called cell surface BTLA; full-length human BTLA
The experiment in a line: flow cytometry, DyLight 650-labeled 6G3 IgG4 on human peripheral blood CD20+ B cells. The method, then:
(§1) PBMCs were washed and incubated at 2×10⁷ cells/ml in FACS buffer (PBS, 1% BSA, 0.02% sodium azide) with Human BD Fc Block (2.5 μg/1×10⁶ cells, BD Biosciences) and LIVE/DEAD® Fixable Yellow Dead Cell Stain (30 μl, ThermoFisher Scientific) for 10 minutes on ice. Cells were washed once in FACS buffer, resuspended in FACS buffer at 1×10⁷ cells/ml and the following phenotyping antibodies added: Alexa Fluor 488-anti-human CD3E clone SK7, Brilliant Violet 421-anti-human CD4 clone OKT4, Brilliant Violet 785-anti-human CD8 clone SK1, and Brilliant Violet 570-anti-human CD20 clone 2H7 (50 μl each; all from BioLegend, Inc.). […] Samples were washed twice in FACS buffer, resuspended in 150 μl/well FACS buffer, and analyzed for fluorescence on a NovoCyte Flow Cytometer (ACEA Biosciences, Inc.). Data were analyzed using NovoExpress Software (ACEA Biosciences, Inc.). Median fluorescence intensities of anti-BTLA or isotype staining on gated CD4⁺ T cells (FIG. 4), CD8⁺ T cells (FIG. 4), or CD20⁺ B cells (FIG. 4) were graphed and curves fit with log(agonist) vs. response (three parameters) least squares fit for EC₅₀ calculation in GraphPad Prism (GraphPad Software, Inc.).
Background: Flow cytometry measures light scatter and fluorescence of single cells or particles in a stream.

Assay [2] addresses T1, human BTLA on cells (stably transfected …). The experiment in a line: flow cytometry, DyLight 650-labeled 6G3 IgG4 on human peripheral blood CD8+ T cells. The method, then:
as §1

The target of assay [3] is T2, cynomolgus monkey BTLA on cells (stably transfected 293c18 clone 1G5); cynomolgus peripheral blood T and B … (cynomolgus monkey, UniProt A0A2K5W7M7 31-289).
T2 construct: whole, on cells; also called cynomolgus monkey BTLA 293c18 cells
T2 sequence: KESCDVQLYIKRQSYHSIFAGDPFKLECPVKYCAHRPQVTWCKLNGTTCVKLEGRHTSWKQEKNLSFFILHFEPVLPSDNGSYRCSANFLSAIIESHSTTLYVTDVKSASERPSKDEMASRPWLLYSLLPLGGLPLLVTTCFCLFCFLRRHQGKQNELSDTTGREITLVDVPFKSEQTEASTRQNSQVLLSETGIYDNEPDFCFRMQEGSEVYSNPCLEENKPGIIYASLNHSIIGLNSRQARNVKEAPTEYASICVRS
Briefly: flow cytometry, AF647-labeled 6G3 IgG4 on cynomolgus monkey peripheral blood CD3+ T cells; not saturated at 100 nM. The method, then: Blood was then aliquoted into wells and incubated with the indicated concentrations of 6G3-AF647 (APE13766.02), or APC-Mouse Anti-Human CD272 (BTLA) reference antibody (clone J168-540; BD Biosciences) for minutes at room temperature, in the dark. Following incubation, red blood cells were lysed for minutes by addition of 2.0 ml diluted BD Pharm Lyse lysing solution (BD Biosciences), samples centrifuged at 200×g for 5 minutes, washed in FACS Buffer [Dulbecco's PBS, no calcium, no magnesium (Gibco/ThermoFisher Scientific), 25 mM HEPES, pH 7.2, 0.1% BSA, sodium azide] and fixed in 4% paraformaldehyde (200 μl/sample) for 10 minutes at room temperature. Samples were washed twice in FACS Buffer and analyzed for fluorescence on a NovoCyte Quanteon flow cytometer (ACEA Biosciences, Inc.). Data were analyzed using NovoExpress Software (ACEA Biosciences, Inc.). Mean fluorescence intensity (MFI) values were graphed and fit with nonlinear regression analyses in GraphPad Prism (GraphPad Software, Inc.). MFI values for each anti-BTLA antibody on total CD3+cells are shown in FIG. 5A; MFI values for each anti-BTLA antibody on total CD20+cells are shown in FIG. 5B. […] Binding of each anti-BTLA antibody to CD3⁻ cells in FIG. 5C and FIG. 5D (green cells in the bottom quadrants of each panel) reflects the binding to CD20⁺ B cells. […]

The values below come from patent publication US20230391872A1 (ANAPTYSBIO, published 2023).

What is called EC50 is the midpoint of the concentration-response curve.

B1: 6G3 IgG4 anti-BTLA antibody (APE10840 / APE12839 / APE13308) (antibody, V domains shown)
VH: QVQLVQSGAEVKKPGSSVKVSCKASGYVFSTSWMNWVRQAPGQGLEWMGRIYPGDADTNYVGKFKGRVTITADKSTTTAYMELSSLRSEDTAVYFCAKSGTFNFGNYRWYFDVWGKGTTVTVSS
VL: AIQLTQSPSSLSASVGDRVTITCRVSENIYSHLAWYQQKPGKAPKLLIYAATNLALGVPSRFSGSGSGTDYTLTISSLQPEDFATYYCQLFWGPPLTFGGGTKVEIKR
notes: Humanized antibody from a mouse hybridoma, tested as human IgG4 (detected with anti-human kappa); Some assays used labelled lots (DyLight 650, AF647, biotin, DyL488); also called 6G3 antibody; APE10840.03
Take B1: the EC50 in assay [1] is approximately 0.5 nM; in assay [2] it was approximately 3.2 nM; in assay [3] it was approximately 3.4 nM.
